Substitutions are numbered along the chain they refer to. Names and notes keep the numbering of the source. Values joined by “and” are separate entries in the source; they are usually repeats but may differ in a detail not shown here. Equal entries are not always repeated. Where two headings read alike, the source gives them in different places.
Experiments:
[1] = target: Arc (Arg3.1) (UniProt Q63053); experiment: dynamic light scattering of oligomer size; details: reference: wild type; sites T278
[2] = target: full-length ArcQ241A (rat) (UniProt Q63053); experiment: dynamic light scattering
[3] = target: full-length ArcK257A (rat) (UniProt Q63053); experiment: dynamic light scattering
[4] = target: full-length ArcG277D (rat) (UniProt Q63053); experiment: dynamic light scattering
[5] = target: full-length ArcS260D (rat) (UniProt Q63053); experiment: dynamic light scattering
[6] = target: full-length ArcS260D,T278D (rat) (UniProt Q63053); experiment: dynamic light scattering
[7] = target: full-length ArcS260D,T278A (rat) (UniProt Q63053); experiment: dynamic light scattering
[8] = target: the molecule itself; experiment: dynamic light scattering
[9] = target: the molecule itself; experiment: dynamic light scattering; remark: listed apart in the source

## Arc (Arg3.1) (from UniProt Q63053) T278D
[1]
  other: oligomer mass from DLS after 6 min at 30°C: weaker; reference ~2458

## full-length ArcQ241A (from UniProt Q63053 1-396) (natural protein)
[2]
  stoichiometry N: 4

## full-length ArcK257A (from UniProt Q63053 1-396) (natural protein)
[3]
  stoichiometry N: 4

## full-length ArcG277D (from UniProt Q63053 1-396) (natural protein)
[4]
  stoichiometry N: 4

## full-length ArcS260D (from UniProt Q63053 1-396) (natural protein)
[5]
  stoichiometry N: 4

## full-length ArcS260D,T278D (from UniProt Q63053 1-396) (natural protein)
[6]
  stoichiometry N: 4

## full-length ArcS260D,T278A (from UniProt Q63053 1-396) (natural protein)
[7]
  stoichiometry N: 4

B1: full-length Rn Arc (wild type) (natural protein, rat, UniProt Q63053 1-396, looked up)
chain: MELDHMTTGGLHAYPAPRGGPAAKPNVILQIGKCRAEMLEHVRRTHRHLLTEVSKQVERELKGLHRSVGKLENNLDGYVPTGDSQRWKKSIKACLCRCQETIANLERWVKREMHVWREVFYRLERWADRLESMGGKYPVGSEPARHTVSVGVGGPEPYCQEADGYDYTVSPYAITPPPAAGELPEQESVGAQQYQSWVPGEDGQPSPGVDTQIFEDPREFLSHLEEYLRQVGGSEEYWLSQIQNHMNGPAKKWWEFKQGSVKNWVEFKKEFLQYSEGTLSREAIQRELDLPQKQGEPLDQFLWRKRDLYQTLYVDAEEEEIIQYVVGTLQPKFKRFLRHPLPKTLEQLIQRGMEVQDGLEQAAEPSVTPLPTEDETEALTPALTSESVASDRTQPE
[8]
  stoichiometry N: 4
[9]
  stoichiometry N: ~32 and ~48

B2: full-length ArcS260A (natural protein, rat, UniProt Q63053 1-396, looked up)
chain: B1 chain with S260A
[9]
  binding result: binds

B3: full-length ArcS260A,T278A (natural protein, rat, UniProt Q63053 1-396, looked up)
chain: B1 chain with S260A, T278A
[9]
  binding result: binds

B4: full-length ArcT278D (natural protein, rat, UniProt Q63053 1-396, looked up)
chain: B1 chain with T278D
[8]
  stoichiometry N: 4
[9]
  stoichiometry N: ~24

Reference: article PMC6625847 (Molecular cell, 2019)
